Experimental data published in EP4740967A1 (Shanghai Escugen Biotechnology Co., Ltd., dated 2026).

Experiments:
Test in all cases: cell-based or functional assay
[1] = target: T1, human Claudin18.2 (human, UniProt P56856 1-261)
T1 sequence (looked up): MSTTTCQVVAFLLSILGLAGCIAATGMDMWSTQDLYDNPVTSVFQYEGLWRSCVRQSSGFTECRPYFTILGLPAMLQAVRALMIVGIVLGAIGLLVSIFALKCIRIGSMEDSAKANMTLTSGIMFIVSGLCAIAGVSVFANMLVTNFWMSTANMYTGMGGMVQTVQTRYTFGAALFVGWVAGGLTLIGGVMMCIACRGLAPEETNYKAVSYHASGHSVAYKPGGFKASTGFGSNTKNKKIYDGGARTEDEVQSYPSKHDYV

[2] = target: T1, human Claudin18.2; remark: listed apart in the source
[3] = target: T1, human Claudin18.2; remark: listed apart in the source
[4] = target: T1, human Claudin18.2; remark: listed apart in the source

B1: 9D1-LD-38 (antibody, human IgG1, kappa, V domains shown)
VH: QIQLVQSGAEVKKPGASVKISCKASGYSFTDYHMNWVRQAPGKGLEWIGNIDPYYGSPTYNHKFKGRVTLTVDTSTSTAYMELSSLRSEDTAVYYCANYGRGNSFPYWGQGTLVTVSS
VL: DIVMTQSPSSLAVSLGERATINCKSSQSLLNSGNQRNYLTWYQQKPGQPPKLLIYWASTRESGVPDRFSGSGSGTDFTLTISSLQAEDVAVYYCQNDYSFPFTFGQGTKLEIKR
modifications: LD-38 linker-drug (Exatecan) on reduced interchain cysteine; main conjugation form one LD-38 molecule per light chain; LD-38 linker-drug (Exatecan) on reduced interchain cysteines; main conjugation form three LD-38 molecules per heavy chain (DAR 8 nominal, 7.8 measured)
- IC50 of inhibition of proliferation of MC38-hClaudin18.2 cells (AlamarBlue cell viability, 72 h) [1]: 0.632 nM
- IC50 of in vitro cell killing on MC38-hClaudin18.2 cells (AlamarBlue cell viability) [2]: 1.36 nM
- IC50 of in vitro cell killing on NUGC4-hClaudin18.2 cells (CCK-8 cell viability, 120 h) [3]: 0.728 nM
- IC50 of in vitro cell killing on HEK293-hClaudin18.2 cells (AlamarBlue cell viability, 72 h) [4]: 0.09 nM
